This is an account of results in US6403637 (dated 2002).

Test [1] deals with T1, collagenase-3 receptor (170 kDa protein) of mouse embryo fibroblasts MEF-1 and MEF-2 (mouse, UniProt Q64449 31-1479).
T1 construct: whole, on cells
T1 sequence (looked up): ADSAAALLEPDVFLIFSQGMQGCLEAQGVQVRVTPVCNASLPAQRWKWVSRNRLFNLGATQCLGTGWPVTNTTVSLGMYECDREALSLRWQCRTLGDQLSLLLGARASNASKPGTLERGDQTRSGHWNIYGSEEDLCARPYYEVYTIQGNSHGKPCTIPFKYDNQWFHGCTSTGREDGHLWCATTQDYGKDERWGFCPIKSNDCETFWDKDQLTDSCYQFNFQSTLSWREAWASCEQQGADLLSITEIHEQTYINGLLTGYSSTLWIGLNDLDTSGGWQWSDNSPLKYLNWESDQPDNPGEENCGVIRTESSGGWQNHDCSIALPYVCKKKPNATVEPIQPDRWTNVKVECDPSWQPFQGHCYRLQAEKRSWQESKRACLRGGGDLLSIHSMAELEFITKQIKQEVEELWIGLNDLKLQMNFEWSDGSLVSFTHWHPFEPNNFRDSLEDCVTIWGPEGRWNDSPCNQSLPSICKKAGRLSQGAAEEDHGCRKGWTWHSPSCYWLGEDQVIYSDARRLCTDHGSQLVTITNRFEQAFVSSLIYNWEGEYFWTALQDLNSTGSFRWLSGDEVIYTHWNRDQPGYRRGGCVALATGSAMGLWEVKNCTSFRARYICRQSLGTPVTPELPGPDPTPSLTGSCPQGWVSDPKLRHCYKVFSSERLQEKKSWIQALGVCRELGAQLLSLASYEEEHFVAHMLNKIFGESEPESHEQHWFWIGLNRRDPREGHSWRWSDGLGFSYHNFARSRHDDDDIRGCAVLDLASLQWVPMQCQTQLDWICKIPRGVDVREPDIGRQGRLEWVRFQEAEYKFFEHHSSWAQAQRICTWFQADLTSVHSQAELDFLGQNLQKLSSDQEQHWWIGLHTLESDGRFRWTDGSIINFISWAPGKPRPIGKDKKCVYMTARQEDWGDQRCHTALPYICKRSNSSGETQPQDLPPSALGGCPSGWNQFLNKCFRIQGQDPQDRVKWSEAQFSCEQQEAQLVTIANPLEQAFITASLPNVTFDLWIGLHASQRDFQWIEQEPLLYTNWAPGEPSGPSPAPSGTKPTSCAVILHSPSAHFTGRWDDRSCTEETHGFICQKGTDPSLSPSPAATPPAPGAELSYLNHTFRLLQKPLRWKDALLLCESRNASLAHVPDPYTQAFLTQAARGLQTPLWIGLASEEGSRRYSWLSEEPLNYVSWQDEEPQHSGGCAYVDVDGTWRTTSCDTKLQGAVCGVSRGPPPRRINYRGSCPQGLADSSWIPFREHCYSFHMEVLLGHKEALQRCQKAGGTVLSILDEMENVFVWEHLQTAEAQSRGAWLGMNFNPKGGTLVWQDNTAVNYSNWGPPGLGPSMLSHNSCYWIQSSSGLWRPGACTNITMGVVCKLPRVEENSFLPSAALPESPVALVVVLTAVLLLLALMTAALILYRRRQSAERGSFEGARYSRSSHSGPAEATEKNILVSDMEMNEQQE
As to the kind of experiment: competition with ^125I mouse collagenase-3 on MEF-2 (LRP null) cells; 200-, 400- and 800-fold excess of competitor. From the text: This sequence corresponds to a published low density lipoprotein receptor-related protein consensus binding sequence.

In test [2] the target is T2, low density lipoprotein receptor-related protein of rat cells (UMR 106-01, normal rat osteoblasts) (rat).
T2 construct: whole, on cells; On blotted membranes in ligand and Western blots; also called LRP; 600 kDa protein
T2 sequence (G3V928 20-3944): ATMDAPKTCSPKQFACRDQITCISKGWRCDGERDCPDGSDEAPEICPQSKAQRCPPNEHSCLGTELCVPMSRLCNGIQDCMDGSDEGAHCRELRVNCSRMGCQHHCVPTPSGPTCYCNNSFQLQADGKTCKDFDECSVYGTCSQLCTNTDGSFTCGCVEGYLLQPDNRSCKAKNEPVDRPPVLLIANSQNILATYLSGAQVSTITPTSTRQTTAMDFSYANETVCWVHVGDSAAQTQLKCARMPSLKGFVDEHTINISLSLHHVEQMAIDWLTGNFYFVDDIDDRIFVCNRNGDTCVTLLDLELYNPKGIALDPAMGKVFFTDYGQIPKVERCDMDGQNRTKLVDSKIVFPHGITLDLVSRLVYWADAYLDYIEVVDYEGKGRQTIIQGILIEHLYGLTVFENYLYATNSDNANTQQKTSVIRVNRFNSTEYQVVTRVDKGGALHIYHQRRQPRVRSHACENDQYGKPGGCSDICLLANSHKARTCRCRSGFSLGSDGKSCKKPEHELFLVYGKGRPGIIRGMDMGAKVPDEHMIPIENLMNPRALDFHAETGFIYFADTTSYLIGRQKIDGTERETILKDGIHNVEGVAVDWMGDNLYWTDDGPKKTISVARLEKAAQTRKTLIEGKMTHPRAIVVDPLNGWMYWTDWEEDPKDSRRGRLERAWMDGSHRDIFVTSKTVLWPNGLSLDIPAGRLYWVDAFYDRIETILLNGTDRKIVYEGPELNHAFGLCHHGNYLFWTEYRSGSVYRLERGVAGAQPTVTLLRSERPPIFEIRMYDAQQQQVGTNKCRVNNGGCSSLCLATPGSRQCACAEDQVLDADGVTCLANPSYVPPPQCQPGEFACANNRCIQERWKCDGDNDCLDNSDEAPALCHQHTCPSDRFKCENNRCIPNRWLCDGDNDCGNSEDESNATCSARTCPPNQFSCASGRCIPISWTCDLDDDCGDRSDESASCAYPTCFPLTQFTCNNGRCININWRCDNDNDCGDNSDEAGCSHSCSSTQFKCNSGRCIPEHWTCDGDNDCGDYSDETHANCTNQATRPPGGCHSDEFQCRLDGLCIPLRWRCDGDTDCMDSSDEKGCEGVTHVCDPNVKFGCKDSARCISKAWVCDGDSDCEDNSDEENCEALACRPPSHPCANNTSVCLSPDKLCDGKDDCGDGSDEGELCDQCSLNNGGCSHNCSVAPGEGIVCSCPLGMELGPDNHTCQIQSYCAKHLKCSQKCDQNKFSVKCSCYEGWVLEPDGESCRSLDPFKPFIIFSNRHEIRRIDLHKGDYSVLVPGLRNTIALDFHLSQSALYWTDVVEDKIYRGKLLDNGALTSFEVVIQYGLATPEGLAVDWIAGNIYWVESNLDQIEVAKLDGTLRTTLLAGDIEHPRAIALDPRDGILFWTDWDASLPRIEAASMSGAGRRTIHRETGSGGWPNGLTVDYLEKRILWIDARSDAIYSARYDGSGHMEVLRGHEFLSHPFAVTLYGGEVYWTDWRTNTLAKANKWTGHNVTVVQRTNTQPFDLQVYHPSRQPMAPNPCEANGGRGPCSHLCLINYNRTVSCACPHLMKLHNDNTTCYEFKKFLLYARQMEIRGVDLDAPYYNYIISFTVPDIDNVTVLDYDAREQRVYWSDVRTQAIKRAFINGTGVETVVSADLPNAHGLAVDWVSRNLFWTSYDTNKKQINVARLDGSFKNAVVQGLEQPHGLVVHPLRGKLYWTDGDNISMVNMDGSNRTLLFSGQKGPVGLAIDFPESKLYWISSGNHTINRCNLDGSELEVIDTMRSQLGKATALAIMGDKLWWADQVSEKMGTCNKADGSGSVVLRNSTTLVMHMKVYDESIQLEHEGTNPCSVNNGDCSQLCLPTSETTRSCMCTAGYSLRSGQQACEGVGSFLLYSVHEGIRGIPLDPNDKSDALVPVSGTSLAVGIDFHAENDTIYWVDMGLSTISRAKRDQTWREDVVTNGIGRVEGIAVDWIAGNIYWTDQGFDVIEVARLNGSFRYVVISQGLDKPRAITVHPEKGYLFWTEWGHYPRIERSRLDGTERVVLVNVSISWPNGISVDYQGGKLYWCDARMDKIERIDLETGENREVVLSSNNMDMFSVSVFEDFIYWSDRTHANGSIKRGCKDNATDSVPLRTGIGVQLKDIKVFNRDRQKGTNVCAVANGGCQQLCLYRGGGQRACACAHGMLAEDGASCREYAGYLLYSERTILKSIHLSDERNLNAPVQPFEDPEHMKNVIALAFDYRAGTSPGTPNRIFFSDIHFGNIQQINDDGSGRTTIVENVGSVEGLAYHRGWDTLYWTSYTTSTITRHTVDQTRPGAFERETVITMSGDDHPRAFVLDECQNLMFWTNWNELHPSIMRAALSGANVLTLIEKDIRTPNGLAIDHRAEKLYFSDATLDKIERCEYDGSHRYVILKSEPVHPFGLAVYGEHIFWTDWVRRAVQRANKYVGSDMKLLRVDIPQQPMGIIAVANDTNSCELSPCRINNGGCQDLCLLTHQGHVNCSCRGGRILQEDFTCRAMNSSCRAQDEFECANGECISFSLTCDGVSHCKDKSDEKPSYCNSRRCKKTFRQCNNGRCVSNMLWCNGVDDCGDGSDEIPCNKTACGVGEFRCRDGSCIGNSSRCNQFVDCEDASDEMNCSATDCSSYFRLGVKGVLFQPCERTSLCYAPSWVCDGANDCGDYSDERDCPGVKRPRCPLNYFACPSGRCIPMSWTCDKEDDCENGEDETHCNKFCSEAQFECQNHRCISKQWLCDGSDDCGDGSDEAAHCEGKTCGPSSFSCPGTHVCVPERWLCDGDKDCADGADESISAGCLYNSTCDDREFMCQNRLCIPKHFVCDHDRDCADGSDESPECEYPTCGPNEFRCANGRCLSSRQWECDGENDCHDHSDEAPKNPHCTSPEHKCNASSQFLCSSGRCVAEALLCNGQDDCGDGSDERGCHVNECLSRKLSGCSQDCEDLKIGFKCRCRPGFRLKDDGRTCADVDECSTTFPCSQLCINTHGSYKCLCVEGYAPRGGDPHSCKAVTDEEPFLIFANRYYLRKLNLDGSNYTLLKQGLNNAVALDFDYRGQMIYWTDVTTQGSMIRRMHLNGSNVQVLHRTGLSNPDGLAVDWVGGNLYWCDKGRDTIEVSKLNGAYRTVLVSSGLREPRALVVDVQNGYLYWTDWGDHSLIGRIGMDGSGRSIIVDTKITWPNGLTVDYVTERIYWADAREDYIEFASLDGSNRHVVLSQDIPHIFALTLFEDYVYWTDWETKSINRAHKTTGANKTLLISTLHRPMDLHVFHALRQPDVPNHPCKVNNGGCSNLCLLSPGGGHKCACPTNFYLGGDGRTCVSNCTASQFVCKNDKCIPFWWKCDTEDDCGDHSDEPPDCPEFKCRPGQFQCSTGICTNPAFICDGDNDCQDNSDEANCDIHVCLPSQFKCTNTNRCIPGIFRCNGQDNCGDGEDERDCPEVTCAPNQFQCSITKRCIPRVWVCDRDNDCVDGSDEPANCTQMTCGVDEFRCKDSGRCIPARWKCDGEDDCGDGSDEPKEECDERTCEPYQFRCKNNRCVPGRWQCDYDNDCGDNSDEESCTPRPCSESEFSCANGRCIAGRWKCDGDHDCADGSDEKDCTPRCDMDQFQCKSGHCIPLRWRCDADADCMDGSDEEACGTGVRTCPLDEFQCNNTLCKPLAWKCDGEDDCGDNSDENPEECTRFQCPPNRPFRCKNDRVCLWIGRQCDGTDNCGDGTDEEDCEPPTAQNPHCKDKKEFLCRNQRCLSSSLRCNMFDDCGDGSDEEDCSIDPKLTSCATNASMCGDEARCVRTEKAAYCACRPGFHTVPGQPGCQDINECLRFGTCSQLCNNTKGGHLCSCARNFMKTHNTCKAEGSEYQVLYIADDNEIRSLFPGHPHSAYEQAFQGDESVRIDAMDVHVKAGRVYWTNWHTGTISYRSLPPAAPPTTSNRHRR
As to the kind of experiment: computer analysis of ^125I-mMMP-13 binding to UMR106-01 cells; lower affinity site.

For test [3], the target named is T3, rat collagenase-3 receptor (170 kDa protein) of UMR 106-01 rat osteosarcoma cells and other rat cells (rat).
T3 construct: whole, on cells; on blotted cell membranes in the ligand blots; also called collagenase receptor; rat collagenase receptor
Description: from the Scatchard analysis on UMR 106-01 cells.

For test [4], the target named is T3, rat collagenase-3 receptor (170 kDa …). Description: Scatchard analysis of ^125I-mMMP-13 binding to UMR106-01 cells; high affinity site (ostensibly the collagenase-3 receptor).
The target of test [5] is T2, low density lipoprotein …. Description: Scatchard analysis of ^125I-mMMP-13 binding to UMR106-01 cells; lower affinity site (ostensibly the low density lipoprotein receptor-related protein).

B1: H/M(229-472) chimeric collagenase (enzyme)
chain: not shown
notes: 62 kDa; not shown: N-terminal 6×His purification tag of pET30
Regarding B1, the “percent of mouse collagenase-3 binding” value in test [1] is 0%.

B2: HM/M(141-472) chimeric collagenase (enzyme)
chain: not shown
notes: as for B1
On to B2, for which the “percent of mouse collagenase-3 binding” value in test [1] was found to be 15.3%.

B3: recombinant mouse collagenase-3 (mMMP-13, residues 1-472) (enzyme)
chain: not shown
modifications: ^125I-labeled where used as tracer
notes: not shown: N-terminal 6×His purification tag of pET30
For B3, the Kd in test [2] was determined as 52.8 nM; in test [4], 3.9 nM; in test [5], 46.2 nM. Besides, the “fold higher affinity compared to the low density lipoprotein receptor-related protein” value in test [3] was about 10 fold. Moreover, the “percent of mouse collagenase-3 binding” value in test [1] was found to be 100%.

B4: C-terminally truncated mouse collagenase-3, M(1-265) (enzyme)
chain: not shown
notes: range 1-265; also called MMP-13 (1-265); truncated MMP-13; not shown: N-terminal 6×His purification tag of pET30
Consider B4, for which the “percent of mouse collagenase-3 binding” value in test [1] was determined as 99.4%.

A word on the Kd: it is a measure of binding affinity in units of concentration. Low values mean higher affinity, high ones lower affinity.
